# According to the nanobody polyreactivity screen of Harvey et al. (2022):
# Experiment: yeast display, Sf9 membrane polyspecificity reagent, FACS + sequencing; frameworks hold sequencing errors
# Procedure, shortened: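 Sorting gates, low and high (top ~1%), were placed on anti-HA fluorescence to track expression and on streptavidin fluorescence to track reagent binding. A clone's polyreactivity label is taken from the gate it came out of. The reagent was 10% biotinylated, detergent-solubilized Sf9 membrane, applied for 1 hour at 4 °C to galactose-induced yeast display cells.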
row,Sequence,polyreactivity (PSR sort gate)
1,QVQLQESGGLVQAGGSLRLSCAASGSISGRNVMGWYRQAPGQEREFVASITDGSSTNYADSVKGRFTISRDNAKNTVYLQMNSLKPKDTAVYYCAAYAQRAKSFGYWGRGTQVTVSS,low polyreactivity
2,QVQLVESGGGLVQAGGRLRLSCAASGSILGDNAMGWYRQAPGKERELVAAISYRGGSTYADSVKGRFTISRDNATNTVYLQKNSLKPDDTAVYYCNKTDIDDSQYREYEYWGQGTQVTVSS,low polyreactivity
3,QVHLVESGGGLVQAGGSLRLSCAASGYTFGYYTMGWYRQAPGKERELFASIDSGGGTNYADSVKGRFTISRDNAKNTVFLQMNSLKPEETAVYYCAVDSYQTGVYFYYVYWDFDLGYWGQVTQVTVSS,low polyreactivity
4,QVQLVESGGGLVQAGGSLRLSCAASGSIFNDNVMGWYRQAPGKERELVAGISRSGTRTYYADSVKGRFTISRDNAKNTVYLQMNSLKPEDTAVYYCAAAYGQARRYNGSQYGSWGQGTQVTVSS,high polyreactivity
5,QVQLVESGGGLVQAGGRLRLSCAASGFTLDRYAMGWYRQAPGKERELVAAITQSGVSTYYADSVKGLFTISRDNAKNTVYLQKNSLKPEETAVYYCNALLRRTYYRYTWGYGYWGQGTQVTVSS,high polyreactivity
6,QVQLVESGGGLFQAGGSLRLSCAASGRTFYNNAMGWYRQAPGKERELVATINNRGGTTYYADSVKGRFTISRDNAKNTVYLQMNSLKPEDTAVYYCAKSAQRYSYRYYYWGQGTQVTVSS,high polyreactivity
7,QVQLVESGGGLVQAGGSLRLSCAASGFIFPTYAMGWYRQAPGKERELVATITTNAGGTHYADSVKGRFTISRDNAKNNVYIQMNSLKPEDTAVYYCNAYGPNIYSSRYDYWGQGTQVTVSS,low polyreactivity
8,QVQLVESGGGLVQAGGSLRLSCAASGNIFPYYAMGWYRQAPGKERELVAAISGSGDRTYYADSVKGRFTIARDNAKNTVYLQMNSLKPEDTAVYYCAASRRYYGWYEYWGQGSQVTVSS,high polyreactivity
9,QVQLVESGGGLVQAGGSLRLSCAASGLTFTYNAMGGYRQAPGKERELVAAITSGGNTNYADSVKGRFTISRDNAKNTVYLQMKSLKPEDTAVYYCATDRKNGISGRYGYWGQGTQVTVSS,low polyreactivity
10,QVLLVESGGGLVQAGGSLRLSCAASGSTFVVNTMRWYRLAPGKERELVAAISTGSSTYADSVKGRFTISRDNAKKTVYLQMNSLKPEDTAVYYCNTAFPGKYDYWGQGTQVTVSS,low polyreactivity
11,QVQLVESGGGLVQAGGSLRLSCAASGLISVIYAMGWYRQAPGKERELVAAISWRGANTYYADSVKGRFTISRDNAKNTVYLQMNSLKPEDTAVYYCNAVLYVWFAPYRYDYWGQGTQVTVSS,high polyreactivity
12,QVQLVESGGGLVQAGGSLRLTCAASGLTFGLYAMGWYRQAPGKERELVAAITRGDSTNYADSVKGRFTISRDNAKNTVYLQMNSLKPEDTAVYYFNAVRTYWWGYNQQYNYWGQGTQVTVSS,high polyreactivity
13,QVQLVESGGGLVQAGGSLRLSCAASGSTFWFYAMGWYRQAPGKERELVAVISNSGSTYYADSVKGRFTISRDNAKNTVYLQMNSLKPEDTAVYYCNRYYPVPYDYWGQGTQVTVSS,low polyreactivity
14,QVQLVESGGGLVQAGGSLRLICAASGFNFQRYAMGWYIQAPGKERELVATISNSGGRTYYADSVKGRFTISRDNAKNTVYLQMNSLKPEDTAVYYCAAGKPYSSYWSWGYWSNLEDDYWGQGTQVTVSS,high polyreactivity
15,QVQLVESGGGLVQAGGSLRLSCAASGSTFWYYAMGWYRQAPGKERELVAAITSVDSTYYADSVKGRFTISRDNANNTVYLQMNSLKPEDTAVYYCAADLPWEDGYYFYSGYTEYDYWGQGTQVTVSS,low polyreactivity
16,QVQLVESGGGLVQAGGSLRLSCAASGFTFLRYAMGWYRQAPGKERELVAAITGGGNTNYADSVKGRFTISRDNAKNTVYLQMNSLKPEDTAVYYCNARRRYWPYREDYWGQGTQVTVSS,high polyreactivity
17,QVQLVESGGGLVQAGGSLRLSCAASGSTFRWNAMGWYRQAPGKERELVATITWGGGSTYYADSVKGRFTISRDNAKNTVYLQMNSLKPEDTAVYYCARRQRARYSYYQYNYWGQGTQVTVSS,high polyreactivity
18,QVQLVESGGGLDQAGGSLRLSCAASGLIFGNYANRGYTQAPGKERELVAALSSGGSTHYADSVKGRFTISRDNAKNTVYLQMHSLNPEDTAVYYCAAGYRYAGNGQIANTGGYYWGQGTQVTVSW,low polyreactivity
19,QVQRVESGGGLVQAGGSLRLSCAASGRTFGPNAMGCYRQSPGKERELVAAITSGGRTYYADSVKGRFTISRDNAKNTVYLQMNSLKPEDTAVYYCAASYRWRSSGKGKYDYWGQGTQVTVSS,high polyreactivity
20,HVQLVESGGGLVQAGRSLRFSCAASGSIFLYNAMGWYRQAPGKERELVAAISKSGGSTYYADSVKGRFTISRDNAKNTVYLQMNSLKPEDTAVYYCAAGYGRRIRYCSEYDYWGQGTQVTVSS,low polyreactivity
21,QVQLVESGGGLVQAGRSLRLSCAASVSIFAGYAMGWYRQAPGKERELVAGISYSGGRTYYADSVKGRFTISRDNAKNTVYLQMNSLKPEDTAVYYCNARFVRVRKGYGYWGLGTQVTVSS,high polyreactivity
22,QVQLVESGGGLVQAGGSLRLSCAVSGRIFRRNVMGWYRQAPGKERELVAGISYSGDSTYYADSVKGRFTISRDNAKKTVYFQMNSLKPEDTAVYYCAAAVAHYRGMYYWGQGTQVTVSS,low polyreactivity

row,Sequence,polyreactivity (PSR sort gate)
1,QVQLVESGGGLVQAGGSLRLSCAASGIIFYAYAMGWYRQAPGKEREFVAAINNSGGRTYYADSVKGRFTISRDNAKNTVYLQMNSLKPEDTAVYYCAVYSYYRRTYRREMDYWGQGTQVTVSS,high polyreactivity
2,QVKLVQSGGGLVEAGGSLLLSCAASGRIFDQYAMGWYRPAPGKERELVAAITTSGDNTYYADSVKGRFTISRDNAKNTVYLQMNSLKPEDTAVYYCKVDIDTFWYGSDYWGQVTQVTVSS,high polyreactivity
3,QVQLVESGGGLDQAGGSLRLSCAASGFIFFRYAMGWYRQAPGKERELVAGNNGSDGSTYYADSVKGRFTISRDNAKNTVYLQMNSLKPEDTAVYYCAAEGGFSPQPYNLYYATPREDYWGQGTQVTVSS,low polyreactivity
4,QVQLVESGGGLVQAGGSLRLSCAASGGIFTRNDMGWYRQAPGKERELVAGISWRGGSTYYADSVKGRFTISRDNAKNTVYLQMNSLKPEDTAVYYCAADLDSDFDYWGQGTQVTVSS,low polyreactivity
5,QVHLQESGGLVQAGGLRLSCAASGSVSYQEAMGWYPQAPGKERELVATISFGANTNYADSVKGRFTISRDNAKNTVYLQRNCLKPEDTAVYYCAAESLFDDYYGYWGQGTQVTVSS,low polyreactivity
6,QVQLVESGVGLLQAGGSLRLSCAASGFIFSFYAMGWYRQAPGKERELVAGISQSGGRTYYADSVKGRFTISRDNAKNNVFLQMNSLKPEDTAVYYCAAQWYYSLYVSGDYWGQGTQVTVSS,high polyreactivity
7,QVQLVESGGGLVQAGGSLRLSCAASGFILRYYAMGWYRQAPGKERELVAAISSGGGTYYADSVKGRFTISRDNAKNTVYLQMNSLKPEDTAVYYCAADYWGLWHWLYTDDDGDYWGQGTQVTVSS,high polyreactivity
8,QVQLVESGGGLVQAGGRLRLSCAASGITLRRNALVWYRQAPGKERELVARITWRGSTYYAESVKGRFTISRDNAKNTVYLQMNSLKPADTAVYYCAADYRSWQPPTKLPPGASDYWGQGTQVTVSS,low polyreactivity
9,QVQLVESGGGLVQAGGSLRLSCAASGSTFYRNVMGWYRQAPGKERELVAAISSGGSTYYADSVIGRFTISRDNAKNTVYLQLNSLKPEDTAVYYCARRLTREYDYWGQGTQVTVSS,low polyreactivity
10,QVQLVDSGGGLVQAGGSLRLSCAASGIIFSDYAMGWYRKAPGIERELVAAISRNGGSTYYADSVKGRFTISRDIAKYTVYLQMNSLKPEDTAVYYCAATRRYRYNWGQGTQVTVSS,high polyreactivity
11,QVQLVESGRGLVQAGGSLRLSCAASGITFGYYAMGWSRQEPGKQSELVAAISFNGASTYYADSVKGRFTISRDNAKNTVYLQMNSMKPVDNAVYYCNRSTSYAQYFDVMDYWGQGTQVTVSS,low polyreactivity
12,QVQLVESGGGLLQAGGSLRLSCAASGSTYFGNAMGWDRQAPGKERELVAAITSGGSTNYADSVKGRFTISRDNAKNTVYLQMNSLKPEDTAVYYCAKPSRWGWTGFYAYDYWGQGTQVTVSS,low polyreactivity
13,QVQLVESGGGLVQAGGSLRLTCAASGRTFRLYVMGWYRQAPGKERELVASISYGGGRTYYADSVKGRFTISRDNAKNTVYLQMNSLKPEDTAVYYCAARYYTYRLDMDYWGQGTQVTVSS,high polyreactivity
14,QVHLVESGGGLVQAGGSLRLSCAASGRIFTYKAMGWYRQAPGKERELVAAITYRRSSTYYADSVKGRFTISRDNAKNTVYLQMNSLKTEDTAVYYCAAVFSGFYYAYDYWGQGTQVTVSS,high polyreactivity
15,QVQLVESGGGLVQAGGSLRLSCAASGSIFQYYAMGWYRQPPGKEREFVAAITSDGSSTYYADSVKGRFTISRDNAKNTVYLQMNSLKPEDTAVYDCAAGWVGDRRPSMYYWGQGTQVTVSS,high polyreactivity
16,QVQLVESGGGLVQAGGSLRLSCAASGNIFYGYAMGWYRQAPGKERELVAAITSSGGGTSYADSVKGRFTISRDNAKNTVYLQMNSLKPVDTAVYYCTKRPWYLSDYWGQGTQVTVSS,low polyreactivity
17,QVQLVESGGGLVQAGGSLRLSCAASARIYDLNAMGWYRQAPGKERELVAAITWSGDSTYYADSVKGRFTISRDTAKNTVYLQMNSLKPEDTAVYYCAAASRTSYSWVDYEFDYWGQGTQVTVSS,low polyreactivity
18,QVQLVESGGGIVQAGGSLRLSCAASGRTFLYNAMGWYRQAPGKERELVAAISKSGGSTYYADSVKGRFTISRDNAKNTVYLLMNSLKPEESAVYYCAKVGGYRGRPSFGDWGQGTQVTVSS,high polyreactivity
19,QVKHVESGGGLVQAGGSLRLSCAASGFTFYTYAMGWYRQKPGKESELVATISSGGRTNYADSVKGRFTISRDNAKNTVYLQMNSLKPEDTAVYYCYKRHRGGAVRFDSWGQGTQVTVSS,low polyreactivity
20,QVQLVESGGGLVQAGGSLRLSCAASGFIFPSNAMGRYRQAPGKERELVAAISSRGTRTYYADSVKGRFTISRDNAKNTVYLQMNCLKPEDTAVYYCAKYGYWGQGTQVTVSS,high polyreactivity
21,QVQLVESGGGLVQAGGSLRLSCAASGRTIPFNAMGWYRQAPGKERELVAAISSSAGRTYYADSVKGRFTISRDNAKNTVYLQMNSLKPEDTAVYYCAARLYGRYRYDYWGHGTQVTVSS,low polyreactivity
